The text below walks through data of US20190367612A1 (Daiichi Sankyo, published 2019).

Assay [1] deals with T1, human GPRC5D (human, UniProt Q9NZD1 1-345).
T1 construct: whole, on cells; also called hGPRC5D; G-protein coupled receptor family C group 5 member D
The assay is described as follows: flow cytometry on KHM-1B cells (human GPRC5D), PE anti-human IgG Fc detection, rMFI = MFI minus isotype control. As to the method: Human multiple myeloma cell line KHM-1B cells expressing GPRC5D were adjusted to a concentration of 2×10⁶ cells/mL with PBS containing 5% FBS, inoculated in an amount of 100 μL/well to a 96-well U-bottomed microplate, and centrifuged to remove the supernatant. The culture supernatant of each human anti-GPRC5D antibody (full-length IgG form containing C2037, C3048, C3015, or C3022) obtained in Example 10)-5 or Human IgG isotype control antibody (Calbiochem/Merck Millipore Corp.) adjusted to 14 ng/mL to 30 μg/mL was added thereto in an amount of 100 μL/well, and the plate was left standing at 4° C. for 1 hour. The cells were washed twice with PBS containing 5% FBS. Then, R-Phycoerythrin AffiniPure F(ab′)2 Fragment Goat Anti-Human IgG, Fcγ Fragment Specific (Jackson ImmunoResearch Laboratories, Inc.) diluted 100-fold with PBS containing 5% FBS was added thereto in an amount of 100 μL/well, and the plate was left standing at 4° C. for 1 hour. The cells were washed twice with PBS containing 5% FBS and then resuspended in PBS containing 5% FBS, followed by detection using a flow cytometer (FACSCanto™ II; Becton, Dickinson and Company). The data was analyzed using Flowjo (Tree Star, Inc.). The PE fluorescence intensity of the cell fraction was plotted to a histogram, and the mean fluorescence intensity (MFI) was calculated. The MFI value of the control antibody was subtracted from the MFI value of the GPRC5D antibody to calculate a relative value of MFI (rMFI).

For assay [2], the target named is T2, human GPRC5D amino-terminal peptide MYKDCIESTGDYFLLCDAEGPWGIILE-K(Biotin)-NH2, having an intramolecular … (human, C-terminal lysine carrying biotin, C-terminal amide; intramolecularly formed disulfide bond).
T2 construct: Peptide Institute synthetic peptide; also called amino-terminal peptide of biotinylated human GPRC5D (disulfide bond present)
T2 peptide: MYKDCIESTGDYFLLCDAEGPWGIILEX
Briefly: ELISA, chemiluminescence: biotinylated amino-terminal peptide of human GPRC5D on NeutrAvidin, culture supernatant of IgG-expressing cells (one concentration, not given), HRP anti-human Fab detection. As to the method:
(§1) NeutrAvidin diluted to 1 μg/mL with PBS was added in an amount of 50 μL/well to 96-well Maxi-sorp plate, and the plate was left standing overnight at 4° C. for immobilization. After washing three times with an ELISA buffer, the amino-terminal peptide of the biotinylated human or cynomolgus monkey GPRC5D (used in Example 10)-1) diluted to 1 μg/mL with PBS was added thereto, and the plate was shaken at room temperature for 1 hour. After washing three times with an ELISA buffer, the plate was blocked with Blocker Casein and washed three times with an ELISA buffer. Then, the culture solution of the IgG-expressing FreeStyle 293F cells was added to the plate and reacted at room temperature for 2 hours. After washing three times with an ELISA buffer, a horseradish peroxidase (HRP)-labeled anti-human Fab antibody (Jackson ImmunoResearch Laboratories, Inc.) diluted 2500-fold with ELISA buffer was added thereto in an amount of 50 μL/well and reacted at room temperature for 1 hour. After washing five times with an ELISA buffer, SuperSignal Pico ELISA Chemiluminescent substrate was added. After 10 minutes, the chemiluminescence was measured using a plate reader.

The target of assay [3] is T3, amino-terminal peptide of cynomolgus monkey GPRC5D …(Biotin)-NH2 (cynomolgus monkey, C-terminal lysine carrying biotin, C-terminal amide).
T3 construct: also called amino-terminal peptide of biotinylated cynomolgus monkey GPRC5D
T3 peptide: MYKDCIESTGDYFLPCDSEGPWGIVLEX
Briefly: ELISA, chemiluminescence: biotinylated amino-terminal peptide of cynomolgus monkey GPRC5D on NeutrAvidin, culture supernatant of IgG-expressing cells (one concentration, not given), HRP anti-human Fab detection. As to the method: as §1
In general terms: ELISA stands for enzyme-linked immunosorbent assay.

Assay [4] addresses T1, human GPRC5D. The assay is described as follows: flow cytometry on KMS-34 cells (endogenous human GPRC5D), anti-FLAG antibody and Alexa 488 anti-mouse IgG detection. The protocol:
The KMS-34 cells were recovered by centrifugation, washed twice with a FACS buffer (PBS containing 0.5% BSA and 2 mM EDTA, pH 7.4), and then suspended in the same solution as above. The C2037, C3048, C3015 or C3022 scFv was added to the obtained cell suspension, and the mixture was left standing at 4° C. for 2 hours. After washing twice with a FACS buffer, the cells were suspended by the addition of an anti-FLAG antibody (Sigma-Aldrich Corp.), and the mixture was further left standing at 4° C. for 1 hour. After washing twice with a FACS buffer, the cells were suspended by the addition of Alexa 488-labeled anti-mouse IgG antibody (Jackson ImmunoResearch Laboratories, Inc.), and the mixture was further left standing at 4° C. for 1 hour. After washing twice with a FACS buffer, the cells were fixed in 1% PFA (prepared from a 32% paraformaldehyde solution (Electron Microscopy Sciences)), followed by detection using a flow cytometer (FACSCanto™ II; Becton, Dickinson and Company). The data was analyzed using Flowjo (Tree Star, Inc.).

The target in assay [5] is T2, human GPRC5D amino-terminal peptide …. Briefly: SPR (Biacore T200), kinetic analysis: biotinylated amino-terminal peptide of human GPRC5D on Sensor Chip CAP, scFv as analyte. As to the method: The binding activity of the anti-GPRC5D antibodies against the amino-terminal peptide of human GPRC5D was tested by SPR using Biacore T200. The amino-terminal peptide of biotinylated human GPRC5D diluted to 2 nM with HBS-EP+ (manufactured by GE Healthcare Bio-Sciences Corp.) was immobilized on Sensor Chip CAP (manufactured by GE Healthcare Bio-Sciences Corp.) by contact at a rate of 10 μL/min for 180 seconds. Then, Kd was calculated by kinetic analysis using a plurality of concentrations of each scFv diluted with HBS-EP+ as analytes.

The target of assay [6] is T3, amino-terminal peptide of cynomolgus …. Briefly: ELISA, chemiluminescence: biotinylated amino-terminal peptide of cynomolgus monkey GPRC5D on NeutrAvidin, scFv detected with HRP anti-FLAG antibody. The protocol: NeutrAvidin diluted to 1 μg/mL with PBS was added in an amount of 50 μL/well to 96-well Maxi-sorp plate (Black, Nunc/Thermo Fisher Scientific Inc.), and the plate was left standing overnight at 4° C. for immobilization. After washing three times with an ELISA buffer, the amino-terminal peptide of the biotinylated human or cynomolgus monkey GPRC5D (used in Example 10)-1) diluted to 1 μg/mL with PBS was added thereto, and the plate was shaken at room temperature for 1 hour. After washing three times with an ELISA buffer, the plate was blocked with Blocker Casein and washed three times with an ELISA buffer. Then, the C2037, C3048, C3015, or C3022 scFv was added to the plate and reacted at room temperature for 2 hours. After washing three times with an ELISA buffer, a horseradish peroxidase (HRP)-labeled anti-FLAG antibody diluted 5000-fold with an ELISA buffer was added thereto in an amount of 50 μL/well and reacted at room temperature for 1 hour. After washing five times with an ELISA buffer, SuperSignal Pico ELISA Chemiluminescent substrate was added. After 10 minutes, the chemiluminescence was measured using a plate reader.

For assay [7], the target named is T4, mouse GPRC5D (mouse, UniProt Q9JIL6 1-344).
T4 construct: whole, on cells
T4 sequence (looked up): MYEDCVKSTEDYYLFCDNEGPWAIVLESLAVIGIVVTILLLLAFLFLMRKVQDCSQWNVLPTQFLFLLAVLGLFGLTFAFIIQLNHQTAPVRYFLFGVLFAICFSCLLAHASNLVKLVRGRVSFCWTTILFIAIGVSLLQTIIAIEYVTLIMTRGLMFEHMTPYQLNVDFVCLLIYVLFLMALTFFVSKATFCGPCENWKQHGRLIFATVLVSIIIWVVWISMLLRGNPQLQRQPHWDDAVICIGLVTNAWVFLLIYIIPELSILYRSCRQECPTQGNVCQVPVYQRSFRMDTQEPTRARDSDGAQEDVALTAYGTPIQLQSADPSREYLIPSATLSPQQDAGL
Briefly: flow cytometry, in the same way as in Example 5)-2. (In general: Flow cytometry measures light scatter and fluorescence of single cells or particles in a stream.)

B1: IgG form of the human antibody C2037 (antibody, V domains shown)
VH: not shown
VL: QPVLTQPPSASGTPGQRVTISCSGSNSNIGSRTVNWYQHLPGTAPRLLIYGNNQWPSGVPDRFSGSKSGSSASLAISGLRSEDEADYYCAAWDDSLSGVVFGGGTKLTVLG
notes: Human IgG1; also called C2037 IgG form; full-length IgG form containing C2037
What is called EC50 (read off the curve) is the concentration giving half of the maximal effect. Take B1: in assay [1], the “EC50 (read off the curve)” value was ~8 nM. Moreover, the binding result in assay [2] and in assay [3] was “binds” throughout.

B2: human antibody C3022 scFv (scFv)
scFv: QVQLVQSGAEVKKPGASVKVSCKASGYTFTGYYMHWVRQAPGQGLEWMGRINPNSGGTNYAQKFQGRVTMTRDTSISTAYMELSGLRSDDTAVYYCASGSVRHPWGQGTLVTVSSGGGGSGGGGSGGGGSQPVLTQPPSASGTPGQRVTISCSGSRSNIGGNIVSWYQQFPGTAPRLLTYADNQRPSGVPDRFSGSKSGTSASLAISGLQSEDEADYYCAAWDDSLNGVVFGGGTKLTVL
notes: also called C3022 antibody scFv; not shown: FLAG and His tags at the carboxyl terminus
One may read the Kd as the free concentration of one partner at which half of the binding sites on the other are occupied at equilibrium, for simple one-to-one binding. As to B2, the binding result in assay [4] and in assay [6] was “binds” throughout. In assay [5], this molecule yielded a Kd of 95 nM.

B3: IgG form of the human antibody C3022 (antibody, V domains shown)
VH: QVQLVQSGAEVKKPGASVKVSCKASGYTFTGYYMHWVRQAPGQGLEWMGRINPNSGGTNYAQKFQGRVTMTRDTSISTAYMELSGLRSDDTAVYYCASGSVRHPWGQGTLVTVSS
VL: QPVLTQPPSASGTPGQRVTISCSGSRSNIGGNIVSWYQQFPGTAPRLLTYADNQRPSGVPDRFSGSKSGTSASLAISGLQSEDEADYYCAAWDDSLNGVVFGGGTKLTVLG
notes: Human IgG1; also called C3022 IgG form; full-length IgG form containing C3022
For the molecule B3, the binding result in assay [1], in assay [2] and in assay [3] was “binds” in each case.

B4: human chimeric 7B4 (antibody, human IgG1, V domains shown)
VH: EIHLQESGPGLVKPSQSLSLTCSVTGYTITSGYDWSWIRKFPGNKMEWMAYMSYRGSTNYNPSLKSRISITRDTSKNQFFLQLNSVTTEDTATYYCALTRTYWYNYYYVLDAWGQGASVTVSS
VL: DIQMTQSPSFLSASVGERVTLSCKASQNINKYLDWYQQKLGEPPKLLIYNTNNLHTGIPSRFSGSGSGTDYTLTISGLQPEDVATYFCLQRNSWYTFGAGTKLELKR
notes: Human IgG1 / kappa constant regions
On to B4, for which the binding result in assay [7] is “no binding”.

B5: IgG form of the human antibody C3048 (antibody, V domains shown)
VH: QVQLVQSGAEVKKPGSSVKVSCKASGGTFSRYAISWVRQAPGQGLEWMGGIIPIFGTANYAQKFQGRVTITADQSTRTAYMDLGRLRSEDTAVYYCALEGFRDSLKRNPFDIWGQGTMVTVSS
VL: QSVVTQPPSVSAAPGQKVTISCSGGTTNIGSNYVSWYQQLPGTAPKFLMYENNKRPSGIPDRFSGSKSGTSATLAITGLQTGDEATYYCSTWDSSLNTGLFGGGTKLTVLG
notes: Human IgG1; also called C3048 IgG form; full-length IgG form containing C3048
With B5, in assay [1], the “EC50 (read off the curve)” value lay in the range of 7 to 8 nM. The binding result in assay [2] and in assay [3] was “binds” each time.

B6: human chimeric 2A4 (antibody, human IgG1, V domains shown)
VH: QVQLQQSGAELAKPGTSVKLSCKASGYTFTSYYIYWVKQRPGQGLEWIGYVYPGYGGTYYSDKFKGKATFTADTSSSTAYMLLGSLTPEDSAYYFCARRKGIIRGPGYFDYWGQGVMVTVSS
VL: DIQMTQSPASLSASLGETVSIECLASEGISNSLAWYQQKPGKSPQLLIYGASSLQDGVPSRFSGSGSGTQYSLKISGMQPEDEGLYYCQQGYKYPPTFGGGTKLELKR
notes: as for B4
Take B6: the binding result in assay [7] is given as “no binding”.
